Laboratory results as given in patent US20100267626.

Target: T1, GST-Axin1 (a.a. 1-280), O35625
T1 chain: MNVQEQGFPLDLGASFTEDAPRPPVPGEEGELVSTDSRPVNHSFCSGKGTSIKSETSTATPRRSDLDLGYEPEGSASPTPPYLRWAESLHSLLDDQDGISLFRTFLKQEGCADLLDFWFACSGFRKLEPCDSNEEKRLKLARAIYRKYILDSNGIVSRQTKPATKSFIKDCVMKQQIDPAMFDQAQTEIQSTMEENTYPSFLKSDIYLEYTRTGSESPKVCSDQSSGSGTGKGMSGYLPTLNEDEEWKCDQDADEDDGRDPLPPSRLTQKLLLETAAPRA

B1: Recombinant TNKS2 (in vitro PARsylation assay) (protein)
chain: MSGRRCAGGGAACASAAAEAVEPAARELFEACRNGDVERVKRLVTPEKVNSRDTAGRKSTPLHFAAGFGRKDVVEYLLQNGANVQARDDGGLIPLHNACSFGHAEVVNLLLRHGADPNARDNWNYTPLHEAAIKGKIDVCIVLLQHGAEPTIRNTDGRTALDLADPSAKAVLTGEYKKDELLESARSGNEEKMMALLTPLNVNCHASDGRKSTPLHLAAGYNRVKIVQLLLQHGADVHAKDKGDLVPLHNACSYGHYEVTELLVKHGACVNAMDLWQFTPLHEAASKNRVEVCSLLLSYGADPTLLNCHNKSAIDLAPTPQLKERLAYEFKGHSLLQAAREADVTRIKKHLSLEMVNFKHPQTHETALHCAAASPYPKRKQICELLLRKGANINEKTKEFLTPLHVASEKAHNDVVEVVVKHEAKVNALDNLGQTSLHRAAYCGHLQTCRLLLSYGCDPNIISLQGFTALQMGNENVQQLLQEGISLGNSEADRQLLEAAKAGDVETVKKLCTVQSVNCRDIEGRQSTPLHFAAGYNRVSVVEYLLQHGADVHAKDKGGLVPLHNACSYGHYEVAELLVKHGAVVNVADLWKFTPLHEAAAKGKYEICKLLLQHGADPTKKNRDGNTPLDLVKDGDTDIQDLLRGDAALLDAAKKGCLARVKKLSSPDNVNCRDTQGRHSTPLHLAAGYNNLEVAEYLLQHGADVNAQDKGGLIPLHNAASYGHVDVAALLIKYNACVNATDKWAFTPLHEAAQKGRTQLCALLLAHGADPTLKNQEGQTPLDLVSADDVSALLTAAMPPSALPSCYKPQVLNGVRSPGATADALSSGPSSPSSLSAASSLDNLSGSFSELSSVVSSSGTEGASSLEKKEVPGVDFSITQFVRNLGLEHLMDIFEREQITLDVLVEMGHKELKEIGINAYGHRHKLIKGVERLISGQQGLNPYLTLNTSGSGTILIDLSPDDKEFQSVEEEMQSTVREHRDGGHAGGIFNRYNILKIQKVCNKKLWERYTHRRKEVSEENHNHANERMLFHGSPFVNAIIHKGFDERHAYIGGMFGAGIYFAENSSKSNQYVYGIGGGTGCPVHKDRSCYICHRQLLFCRVTLGKSFLQFSAMKMAHSPPGHHSVTGRPSVNGLALAEYVIYRGEQAYPEYLITYQIMRPEGMVDG
- in vitro PARsylation with biotin-NAD+ (SDS-PAGE, streptavidin probe): TNKS2 was able to PARsylate an Axin1 fragment (a.a. 1-280) containing the TBD in vitro, which was completely inhibited by XAV939 treatment
